We go through 1 molecule from paper PMC3223566, “The Initiation Factor TFE and the Elongation Factor Spt4/5 Compete for the RNAP Clamp during Transcription Initiation and Elongation” (Molecular Cell, 2011).

The target in assay [1] is T1, M. jannaschii RNA polymerase, wild type, reconstituted from 12 recombinant subunits (M. jannaschii, UniProt Q58443 1-78; Q57840 1-187).
T1 construct: RNA polymerase subunit Rpo1′, M. jannaschii; holds the clamp coiled-coil motif; RNA polymerase subunit Rpo2″, M. jannaschii; RNA polymerase subunit Rpo4 (stalk), M. jannaschii; RNA polymerase subunit Rpo5, M. jannaschii; RNA polymerase subunit Rpo7 (stalk), M. jannaschii; In PIC and TEC experiments the same RNAP stood with DNA, TBP and TFB, or with a DNA/RNA scaffold (see the assay's format); …
Briefly: fluorescence polarisation; fluorescence anisotropy; RNAP added to labeled TFE^44*Cy3B (50 nM); apparent dissociation constant by direct fitting of the titration curves. As to conditions: both partners purified.

In assay [2] the target is T2, RNAPΔRpo4/7, ten-subunit RNAP subassembly lacking Rpo4/7 (M. jannaschii, UniProt Q58443 1-78).
T2 construct: RNA polymerase subunit Rpo1′, M. jannaschii; holds the clamp coiled-coil motif; RNA polymerase subunit Rpo2″, M. jannaschii; RNA polymerase subunit Rpo5, M. jannaschii; As m6 without the chains Rpo4 and Rpo7; source: recombinant subunits, reconstituted in vitro without Rpo4/7; copies: + + + + + + + + +
Described as above. As to conditions: both partners purified.

B1: TFE labeled with Cy3B at residue 44 (WH domain) (natural protein)
chain: MLNDPLVQEVLFNIFEGDEKGFEVIDVLLEKGETTEEEIAKELFVKLNVVRKLLYKLYDARLVDYKRWKDEDTNWYSYTWLPTLEKLPYVVKKKINELIKDLEKKLEFEKNNMFFFCPNCNVRFTFEEAMDYGFSCPGCGNMLQEFDNSELIKDLEEQIKFLKEELKNNPFLK
modifications: p-azido phenylalanine (APA) at position 44, derivatized with Cy3B
B1: the values for the Kd in assay [1] and in assay [2] were 200 ± 10 nM and 1700 ± 150 nM, respectively.
